Experimental data taken from the supplement of paper PMC9112550, “Optimization of the antimicrobial peptide Bac7 by deep mutational scanning” (BMC Biology, 2022).

Test system: Escherichia coli TOP10
Experiment: shrunken log2 fold change of peptide-encoding DNA abundance (4.5 h post-induction vs induction); higher = less antimicrobial activity (less host growth inhibition)
Details: time post-induction: 4.5 h; library: site-saturation at positions 5, 18, 19, 20
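Also: peptides expressed intracellularly from a pBAD plasmid library in pooled LB shake-flask culture, induced with 0.3% L-arabinose, DNA abundance read by NGS, three biological replicates, DESeq2 with apeglm shrinkage.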

| Sequence | shrunken log2 fold change |
| --- | --- |
| RRIRHRPPRLPRPRPRPFSDPRP | -0.149 |
| RRIRHRPPRLPRPRPRPFTGPRP | -0.171 |
| RRIRHRPPRLPRPRPRPFTVPRP | -0.0532 |
| RRIRHRPPRLPRPRPRPFYGPRP | -0.0135 |
| RRIRHRPPRLPRPRPRPFYNPRP | -0.632 |
| RRIRHRPPRLPRPRPRPGCEPRP | 0.103 |
| RRIRHRPPRLPRPRPRPGDWPRP | -0.133 |
| RRIRHRPPRLPRPRPRPGESPRP | -0.0414 |
| RRIRHRPPRLPRPRPRPGGPPRP | -0.355 |
| RRIRHRPPRLPRPRPRPGGQPRP | 0.0463 |
| RRIRHRPPRLPRPRPRPGIQPRP | -0.277 |
| RRIRHRPPRLPRPRPRPGIYPRP | 0.0151 |
| RRIRHRPPRLPRPRPRPGLEPRP | 0.00016 |
| RRIRHRPPRLPRPRPRPGLGPRP | 0.404 |
| RRIRHRPPRLPRPRPRPGNNPRP | -0.00857 |
| RRIRHRPPRLPRPRPRPGQHPRP | -0.372 |
| RRIRHRPPRLPRPRPRPGQRPRP | 0.0218 |
| RRIRHRPPRLPRPRPRPGQSPRP | -0.0176 |
| RRIRHRPPRLPRPRPRPGSEPRP | 0.176 |
| RRIRHRPPRLPRPRPRPGSKPRP | -0.00664 |
| RRIRHRPPRLPRPRPRPGSVPRP | -0.31 |
| RRIRHRPPRLPRPRPRPGTLPRP | -0.259 |
| RRIRHRPPRLPRPRPRPGWGPRP | 0.0673 |
| RRIRHRPPRLPRPRPRPHEHPRP | 0.103 |
| RRIRHRPPRLPRPRPRPHERPRP | -0.00134 |

| Sequence | shrunken log2 fold change |
| --- | --- |
| RRIRHRPPRLPRPRPRPHFKPRP | -0.455 |
| RRIRHRPPRLPRPRPRPHFMPRP | 0.00955 |
| RRIRHRPPRLPRPRPRPHFRPRP | 0.00253 |
| RRIRHRPPRLPRPRPRPHHHPRP | -1 |
| RRIRHRPPRLPRPRPRPHHRPRP | -0.257 |
| RRIRHRPPRLPRPRPRPHKIPRP | -0.215 |
| RRIRHRPPRLPRPRPRPHLRPRP | -0.0385 |
| RRIRHRPPRLPRPRPRPHLVPRP | -0.18 |
| RRIRHRPPRLPRPRPRPHMHPRP | -0.687 |
| RRIRHRPPRLPRPRPRPHNVPRP | -0.195 |
| RRIRHRPPRLPRPRPRPHPYPRP | -0.462 |
| RRIRHRPPRLPRPRPRPHQAPRP | -0.0163 |
| RRIRHRPPRLPRPRPRPHQVPRP | -0.00848 |
| RRIRHRPPRLPRPRPRPHRLPRP | -0.0453 |
| RRIRHRPPRLPRPRPRPHTLPRP | -0.247 |
| RRIRHRPPRLPRPRPRPHTNPRP | -0.672 |
| RRIRHRPPRLPRPRPRPHVNPRP | -0.183 |
| RRIRHRPPRLPRPRPRPHWCPRP | -0.0566 |
| RRIRHRPPRLPRPRPRPHWQPRP | -0.00133 |
| RRIRHRPPRLPRPRPRPHWRPRP | 0.125 |
| RRIRHRPPRLPRPRPRPHWTPRP | -0.00191 |
| RRIRHRPPRLPRPRPRPHYMPRP | -0.854 |
| RRIRHRPPRLPRPRPRPHYYPRP | -0.216 |
| RRIRHRPPRLPRPRPRPICAPRP | -0.0362 |
| RRIRHRPPRLPRPRPRPIDIPRP | -0.326 |

| Sequence | shrunken log2 fold change |
| --- | --- |
| RRIRHRPPRLPRPRPRPIDMPRP | 0.0231 |
| RRIRHRPPRLPRPRPRPIGDPRP | -0.00136 |
| RRIRHRPPRLPRPRPRPIHFPRP | -0.171 |
| RRIRHRPPRLPRPRPRPIHVPRP | 0.0364 |
| RRIRHRPPRLPRPRPRPIKPPRP | -0.236 |
| RRIRHRPPRLPRPRPRPILMPRP | -0.00291 |
| RRIRHRPPRLPRPRPRPILQPRP | -0.152 |
| RRIRHRPPRLPRPRPRPIMHPRP | -0.375 |
| RRIRHRPPRLPRPRPRPIMKPRP | -0.317 |
| RRIRHRPPRLPRPRPRPINAPRP | 0.0354 |
| RRIRHRPPRLPRPRPRPINTPRP | -0.249 |
| RRIRHRPPRLPRPRPRPIPCPRP | -0.0558 |
| RRIRHRPPRLPRPRPRPIRFPRP | -0.00142 |
| RRIRHRPPRLPRPRPRPISRPRP | -0.0532 |
| RRIRHRPPRLPRPRPRPITNPRP | -1.23 |
| RRIRHRPPRLPRPRPRPIVHPRP | -0.125 |
| RRIRHRPPRLPRPRPRPIYIPRP | -0.156 |
| RRIRHRPPRLPRPRPRPKAWPRP | -0.00151 |
| RRIRHRPPRLPRPRPRPKEDPRP | 2.87 |
| RRIRHRPPRLPRPRPRPKFDPRP | -0.336 |
| RRIRHRPPRLPRPRPRPKFSPRP | -0.304 |
| RRIRHRPPRLPRPRPRPKGHPRP | -0.311 |
| RRIRHRPPRLPRPRPRPKGLPRP | 0.0749 |
| RRIRHRPPRLPRPRPRPKHQPRP | -0.195 |
| RRIRHRPPRLPRPRPRPKHYPRP | -0.577 |
